Assay [1] addresses synthetic phospho-S463 CRN2 coiled coil peptide (human) (UniProt Q9ULV4). As to the kind of experiment: SEC-MALS. A general note: Size exclusion chromatography separates by hydrodynamic size, large species first.
For assay [2] the target is unchanged. As to the kind of experiment: small-angle X-ray scattering.

For orientation: stoichiometry N means a count of units in the complex or per binding partner. Turning to “synthetic phospho-S463 CRN2 coiled coil peptide (from UniProt Q9ULV4 435-474)”, the stoichiometry N in assay [1] and in assay [2] was 3 throughout.
